Measured values reported in patent publication US20230106247A1 (L AND L BIO CO LTD NINGBO CHINA, published 2023).
Like-named read-outs stand apart in the source and are kept apart here.

Assays:
human Sirpα-V1-his [1] = biological target: T1, human Sirpα-V1-his (human, UniProt P78324 31-373); test: blocking ELISA, competitor CD47-hFc
T1 construct: range 31-373; Bought (Sino Biological 11612-H08H) or expressed in-house; also called hSirpα-V1; hSirpα-V1-his
Method: (§1) The recombinant proteins such as human Sirpα-V1-hFc/Sirpα-V1-his were diluted to concentrations of 5 μg/mL or 2 μg/mL respectively with a PBS buffer at pH 7.4, and then added into a 96-well ELISA plate (Corning, CLS3590-100EA) at a volume of 50 μL/well, and placed in an incubator at 37° C. for 2 hours. After the liquid was discarded, the wells were added with a blocking solution of 5% skimmed milk (skimmed milk powder available from Bright Dairy) diluted with PBS at 230 μL/well, and incubated in an incubator at 37° C. for 3 hours, or placed overnight at 4° C. (for 16-18 hours) for blocking. […] The plate was washed for 5 times, added with 50 μL/well of streptavidin-HRP (GenScript, M00091) or anti-his-HRP secondary antibody (GenScript, A00612) diluted at 1:1000, incubated at 37° C. for 1 hour, and then washed with PBST for 5 times. Each well was added with 50 μL of TMB (Surmodic, Cat #: TTMB-1000-01) for color development, and added with 50 μL/well of 1 M H₂SO₄ to stop the reaction. The readings on a microplate reader (MultiskanGO Thermo, Model 51119200) were subjected to data analysis by GraphPad prism 5.

[2] = biological target: T2, human T cells (expressing Sirpγ) (human, UniProt Q9P1W8 29-387); test: flow cytometry on PBMC
T2 construct: whole, on cells; The target as printed is the cell; also called human PBMCs (T cells)
T2 sequence (Q9P1W8 29-387): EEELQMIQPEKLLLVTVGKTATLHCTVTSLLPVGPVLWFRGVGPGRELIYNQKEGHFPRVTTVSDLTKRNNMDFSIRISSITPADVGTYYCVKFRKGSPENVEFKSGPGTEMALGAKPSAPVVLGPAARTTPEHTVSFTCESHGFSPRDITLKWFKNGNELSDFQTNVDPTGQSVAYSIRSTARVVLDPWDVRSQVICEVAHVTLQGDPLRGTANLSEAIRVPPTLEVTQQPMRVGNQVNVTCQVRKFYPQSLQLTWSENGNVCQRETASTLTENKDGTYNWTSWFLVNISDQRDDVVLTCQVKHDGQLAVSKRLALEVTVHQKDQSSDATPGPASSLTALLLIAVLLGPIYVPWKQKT

human Sirpα-V1-hFc [3] = biological target: T3, human Sirpα-V1-hFc (human, UniProt P78324 31-373); test: blocking ELISA, competitor CD47-his
T3 construct: range 31-373; also called hSirpα (dimer); hSirpα-V1-hFc (dimer); not shown: human IgG1 Fc region at the C-terminus
Method: as §1

[4] = biological target: T4, human Sirpα-V1 on CHO-K1 cells (CHO-K1 hSirpα+ cell line) (human, UniProt P78324 31-504); test: cell ELISA on CHO-K1 hSirpα+ cells
T4 construct: whole, on cells; also called hSirpα-v1+ cell strain
From the text: The readings on a microplate reader (MultiskanGO Thermo, Model 51119200) were subjected to data analysis by GraphPad prism 5.
The light and heavy chain variable region sequences of the aforementioned antibody of the present disclosure and the constant regions of different IgG types, for example human IgG1 (hIgG1), human IgG2 (hIgG2), human IgG3 (hIgG3) or human IgG4 (hIgG4), human light chain κ and λ types; murine mIgG1, mIgG2 or mIgG3, murine light chain κ and λ types, etc. were recombined, expressed and purified to obtain an entire human-murine chimeric antibody and a murine antibody.

Cyno Sirpα L932 = biological target: T5, Cyno Sirpα L932 (cynomolgus); test: ELISA
T5 chain: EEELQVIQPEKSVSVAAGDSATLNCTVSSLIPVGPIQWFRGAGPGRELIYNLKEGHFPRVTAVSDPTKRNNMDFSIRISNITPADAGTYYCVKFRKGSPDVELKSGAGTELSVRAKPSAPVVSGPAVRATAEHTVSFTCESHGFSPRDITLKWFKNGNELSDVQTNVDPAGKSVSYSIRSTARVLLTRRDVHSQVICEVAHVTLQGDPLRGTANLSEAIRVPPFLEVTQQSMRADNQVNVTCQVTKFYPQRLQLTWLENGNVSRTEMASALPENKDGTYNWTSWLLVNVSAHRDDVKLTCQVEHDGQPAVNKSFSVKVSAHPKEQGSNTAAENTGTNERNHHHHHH

Cyno Sirpα L936 = biological target: T6, Cyno Sirpα L936 (cynomolgus); test: ELISA
T6 construct: also called RB3-3; Cyno Sirpα polymorphism 3 (L936)
T6 chain: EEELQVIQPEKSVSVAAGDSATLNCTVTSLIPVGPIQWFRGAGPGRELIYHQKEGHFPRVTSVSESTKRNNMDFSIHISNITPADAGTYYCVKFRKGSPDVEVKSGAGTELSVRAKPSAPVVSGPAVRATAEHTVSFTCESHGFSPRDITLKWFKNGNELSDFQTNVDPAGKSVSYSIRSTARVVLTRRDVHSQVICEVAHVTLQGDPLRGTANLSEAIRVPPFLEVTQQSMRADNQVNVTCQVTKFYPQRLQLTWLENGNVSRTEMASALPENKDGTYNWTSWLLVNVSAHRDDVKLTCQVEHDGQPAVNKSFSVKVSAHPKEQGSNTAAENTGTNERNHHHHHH

Cyno Sirpα L937 = biological target: T7, Cyno Sirpα L937 (cynomolgus); test: ELISA
T7 construct: also called RB3-5; Cyno Sirpα polymorphism 4 (L937)
T7 chain: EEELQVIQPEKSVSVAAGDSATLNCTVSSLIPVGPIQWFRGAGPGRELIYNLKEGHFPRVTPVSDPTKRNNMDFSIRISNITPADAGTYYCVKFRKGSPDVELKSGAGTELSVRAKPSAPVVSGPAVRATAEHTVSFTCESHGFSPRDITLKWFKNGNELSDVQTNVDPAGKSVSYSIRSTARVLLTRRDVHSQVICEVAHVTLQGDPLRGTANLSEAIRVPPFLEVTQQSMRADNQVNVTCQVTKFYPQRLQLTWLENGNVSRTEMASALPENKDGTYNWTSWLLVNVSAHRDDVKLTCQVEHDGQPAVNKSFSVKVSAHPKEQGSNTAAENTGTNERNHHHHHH

Cyno Sirpα L933 = biological target: T8, Cyno Sirpα L933 (cynomolgus); test: ELISA
T8 construct: extracellular domain; also called Cyno Sirpα polymorphism 2 (L933)

human Sirpα-V1-his [5] = biological target: T1, human Sirpα-V1-his; test: blocking ELISA, competitor CD47-hFc; remark: listed apart in the source
Method: as §1, with “5. […]” for “5.”

human Sirpα-V1-hFc [6] = biological target: T3, human Sirpα-V1-hFc; test: blocking ELISA, competitor CD47-his; remark: listed apart in the source
Method: as §1, with “5. […]” for “5.”

human Sirpα-V1-his [7] = biological target: T1, human Sirpα-V1-his; test: ELISA
human Sirpα-V2-his = human Sirpα-V2-his (human); test: ELISA
Sequence of human Sirpα-V2-his (human) (chain, as listed by the source): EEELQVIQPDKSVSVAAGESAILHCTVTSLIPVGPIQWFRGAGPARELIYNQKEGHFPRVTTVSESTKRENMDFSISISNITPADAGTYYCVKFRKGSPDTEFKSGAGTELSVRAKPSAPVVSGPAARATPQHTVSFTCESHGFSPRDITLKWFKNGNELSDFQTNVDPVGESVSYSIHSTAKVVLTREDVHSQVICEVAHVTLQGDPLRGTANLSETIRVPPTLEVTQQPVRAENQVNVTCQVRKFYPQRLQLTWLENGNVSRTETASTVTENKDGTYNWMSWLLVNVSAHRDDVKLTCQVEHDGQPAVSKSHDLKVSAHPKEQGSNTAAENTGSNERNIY
Method: (§2) Different antigens (recombinant proteins) such as the human Sirpα-V1-hFc, Sirpα-V1-his, Sirpα-V2-his, Sirpβ-his, Sirpγ-his, monkey Sirpα-his (cynoSirpα-his) or NOD-mSirpα-his described in Example 1 were diluted with a PBS buffer at pH7.4 to concentrations of 1 μg/mL, 2 μg/mL or 5 μg/mL, added into a 96-well ELISA plate (Corning, CLS3590-100EA) at a volume of 50 μL/well, and placed in an incubator at 37° C. for 2 hours. After the liquid was discarded, the wells were added with a blocking solution of 5% skimmed milk (skimmed milk powder available from Bright Dairy) diluted with PBS at 230 μL/well, and incubated in an incubator at 37° C. for 3 hours, or placed overnight at 4° C. (for 16-18 hours) for blocking. […] The plated was washed with PBST for 5 times, then added with 50 μL/well of TMB chromogenic substrate (KPL, Cat #: 52-00-03), incubated at room temperature for 10-15 min, added with 50 μL/well of 1 M H₂SO₄ to stop the reaction, and read by a […] Go microplate reader (ThermoFisher, Cat #: 51119200) for the absorbance value at 450 nm, and then a clone with high binding activity was selected or a EC₅₀ value was calculated according to the OD value. […]

human Sirpα-V1-his [8] = biological target: T1, human Sirpα-V1-his; test: ELISA; remark: listed apart in the source
Method: as §2

B1: human-murine chimeric antibody mab14c (antibody, human IgG4 S228P, kappa, V domains shown)
VH: QVHLQQPGAELVKPGASVKLSCKASGYNFNIYWINWVKQRPGQGLEWIGNIYPSSISTNYNEKFKTKATLTVDKSSNTVYMQFSSLTSEDSAVYYCARSEGTYYGGRYEGDWFGYWGQGTLVTVSA
VL: DIQMTQTTSSLSASLGDRVTISCRASQDIRNYLNWYQQKPDGTVKLLIYFTSTLHSGVPSRFSGSGSGTDYSLTISNLEQEDIATYFCQQGNTLPWTFGGGTKLEIKR
notes: hIgG4, κ
IC50 (human Sirpα-V1-his [1]): 9980 pM | binding result [2]: no binding (tested: 10 µg/mL) | IC50 (human Sirpα-V1-hFc [3]): 5480 pM | EC50 [4]: 290 pM | EC50 (Cyno Sirpα L932): 100 pM | EC50 (Cyno Sirpα L936): 99 pM | EC50 (Cyno Sirpα L937): 99 pM | EC50 (Cyno Sirpα L933): 140 pM | IC50 (human Sirpα-V1-his [5]): 5540 pM | IC50 (human Sirpα-V1-hFc [6]): 5700 pM | EC50 (human Sirpα-V1-his [7]): 93 pM | EC50 (human Sirpα-V2-his): 140 pM | EC50 (human Sirpα-V1-his [8]): 160 pM
